For orientation: pKd means −log10 of the Kd, conventionally taken in molar units. Low readings indicate a high Kd, high ones a low Kd.

In the series the test system is Tus-LPETGG-His6 (sortase-immobilized on glycine-modified GMA beads) (Escherichia coli). In words: bead-based fluorescence binding (FACS). The note with it: 50 mM Tris-HCl, 250 mM KCl, 0.1 mM EDTA, 0.1 mM DTT, pH 9; temperature of binding not stated.

pKd: −log10 of the molar value.

Take TerB: the pKd was 7.54.

Source of the values: paper PMC2063460.
